According to US10772928B2, “Modulation and detection of a neuronal alternative splicing regulatory network for treatment and diagnosis of neurological disorders” (The Governing Council of the University of Toronto, priority 2014, dated 2020):

B1: Prpf38b (protein, UniProt Q80SY5 2-542, looked up)
Pre-mRNA-splicing factor 38B: ANNSPALTGNSQPQHQAAAAVTQQQQQCGGGGGATKPAVSGKQGNVLPLWGNEKTMNLNPMILTNILSSPYFKVQLYELKTYHEVVDEIYFKVTHVEPWEKGSRKTAGQTGMCGGVRGVGTGGIVSTAFCLLYKLFTLKLTRKQVMGLITHTDSPYIRALGFMYIRYTQPPTDLWDWFESFLDDEEDLDVKAGGGCVMTIGEMLRSFLTKLEWFSTLFPRIPVPVQKNIDQQIKTRPRKIKKDGKEGIEEIDRHVERRRSRSPRRSLSPRRSPRRSRSRSHHREGHGSSSFDRELEREKERQRLEREAKEREKERRRSRSIDRGLDRRRSRSRERHRSRSRSRDRKGDRRDRDREREKENERGRRRDRDYDKERGSDRERDRERSRERSKEQRSRGDGEEKKHKEDKEDRRHRDDKKESKKKHSRSRSRERKHRSRSRNAGKRSRSRSKDKSSRHKNESKEKANKRSRSGSQGRTGSVEKRKREHSPSREKSRKRSRSQDRSHKREHNDSKDQSDRQDHQSSQSGEPESQEKEHKSKDETV
B2: Ccnb2 (protein, UniProt P30276 1-398, looked up)
G2/mitotic-specific cyclin-B2: MALLRRPTVSSDLKNIDTEVIPKAKSHVTIRRAVLEEIGNKVRNRTTQVAKKPQNTKVPALPTKVTNVNKQPKPTASVKPVQMEALAPKDRPPAPEDVSMKEESLCQAFSDALLCKIEDIDNEDRENPQLCSDYVKDIYQYLRQLEVLQSINPHFLDGRDINGRMRAILVDWLVQVHSKFRLLQETLYMCIAIMDRFLQAQLVCRKKLQLVGITALLLASKYEEMFSPNIEDFVYITDNAYTSSQIREMETLILKELKFELGRPLPLHFLRRASKAGEVDVEQHTLAKYLMELTLVDYDMVHYHPSQVAAAASCLSQKVLGQGKWNLKQQYYTGYMESEVLEVMQHMAKNVVKVNDNRTKFIAVKNKYASSRLLKISTIPQLNSKIIKDLASPLLGSP
B3: U2af1 (protein, UniProt Q9D883 2-239, looked up)
Splicing factor U2AF 35 kDa …: AEYLASIFGTEKDKVNCSFYFKIGACRHGDRCSRLHNKPTFSQTIALLNIYRNPQNSSQSADGLRCAVSDVEMQEHYDEFFEEVFTEMEEKYGEVEEMNVCDNLGDHLVGNVYVKFRREEDAEKAVIDLNNRWFNGQPIHAELSPVTDFREACCRQYEMGECTRGGFCNFMHLKPISRELRRELYGRRRKKHRSRSRSRERRSRSRDRGRGGGGGGGGGGGRERDRRRSRDRERSGRF
B4: Luc7l2 (protein, UniProt Q7TNC4 1-392, looked up)
Putative RNA-binding protein …: MSAQAQMRAMLDQLMGTSRDGDTTRQRIKFSDDRVCKSHLLNCCPHDVLSGTRMDLGECLKVHDLALRADYEIASKEQDFFFELDAMDHLQSFIADCDRRTEVSKKRLAETQEEISAEVAAKAERVHELNEEIGKLLAKVEQLGAEGNVEESQKVMDEVEKARAKKREAEEVYRNSMPASSFQQQKLRVCEVCSAYLGLHDNDRRLADHFGGKLHLGFIEIREKLEELKRVVAEKQEKRNQERLKRREEREREEREKLRRSRSHSKNPKRSRSREHRRHRSRSMSRERKRRTRSKSREKRHRHRSRSSSRSRSRSHQRSRHSSRDRSRERSKRRSSKERFRDQDLASRDRDRSSRDRSPRDRDRKDKKRSYESANGRSEDRRSSEEREAGEI
B5: Ywhaq (protein, UniProt P68254 1-245, looked up)
14-3-3 protein theta: MEKTELIQKAKLAEQAERYDDMATCMKAVTEQGAELSNEERNLLSVAYKNVVGGRRSAWRVISSIEQKTDTSDKKLQLIKDYREKVESELRSICTTVLELLDKYLIANATNPESKVFYLKMKGDYFRYLAEVACGDDRKQTIENSQGAYQEAFDISKKEMQPTHPIRLGLALNFSVFYYEILNNPELACTLAKTAFDEAIAELDTLNEDSYKDSTLIMQLLRDNLTLWTSDSAGEECDAAEGAEN
B6: Csnk1d (protein, UniProt Q9DC28 1-415, looked up)
Casein kinase I isoform delta: MELRVGNRYRLGRKIGSGSFGDIYLGTDIAAGEEVAIKLECVKTKHPQLHIESKIYKMMQGGVGIPTIRWCGAEGDYNVMVMELLGPSLEDLFNFCSRKFSLKTVLLLADQMISRIEYIHSKNFIHRDVKPDNFLMGLGKKGNLVYIIDFGLAKKYRDARTHQHIPYRENKNLTGTARYASINTHLGIEQSRRDDLESLGYVLMYFNLGSLPWQGLKAATKRQKYERISEKKMSTPIEVLCKGYPSEFATYLNFCRSLRFDDKPDYSYLRQLFRNLFHRQGFSYDYVFDWNMLKFGASRAADDAERERRDREERLRHSRNPATRGLPSTASGRLRGTQEVAPPTPLTPTSHTANTSPRPVSGMERERKVSMRLHRGAPVNVSSSDLTGRQDTSRMSTSQIPGRVASSGLQSVVHR
B7: Csnk2a1 (protein, UniProt Q60737 1-391, looked up)
Casein kinase II subunit alpha: MSGPVPSRARVYTDVNTHRPREYWDYESHVVEWGNQDDYQLVRKLGRGKYSEVFEAINITNNEKVVVKILKPVKKKKIKREIKILENLRGGPNIITLADIVKDPVSRTPALVFEHVNNTDFKQLYQTLTDYDIRFYMYEILKALDYCHSMGIMHRDVKPHNVMIDHEHRKLRLIDWGLAEFYHPGQEYNVRVASRYFKGPELLVDYQMYDYSLDMWSLGCMLASMIFRKEPFFHGHDNYDQLVRIAKVLGTEDLYDYIDKYNIELDPRFNDILGRHSRKRWERFVHSENQHLVSPEALDFLDKLLRYDHQSRLTAREAMEHPYFYTVVKDQARMSSTSMAGGSTPVSSANMMSGISSVPTPSPLGPLAGSPVIAAANSLGIPVPAAAGAQQ
B8: Ccnb1 (protein, UniProt P24860 1-430, looked up)
G2/mitotic-specific cyclin-B1: MALRVTRNTKINAENKAKVSMAGAKRVPVTVTAASKPGLRPRTALGDIGNKVSEELQARVPLKREAKTLGTGKGTVKALPKPVEKVPVCEPEVELAEPEPEPELEHVREEKLSPEPILVDNPSPSPMETSGCAPAEEYLCQAFSDVILAVSDVDADDGADPNLCSEYVKDIYAYLRQLEEEQSVRPKYLQGREVTGNMRAILIDWLIQVQMKFRLLQETMYMTVSIIDRFMQNSCVPKKMLQLVGVTAMFIASKYEEMYPPEIGDFAFVTNNTYTKHQIRQMEMKILRVLNFSLGRPLPLHFLRRASKVGEVDVEQHTLAKYLMELSMLDYDMVHFAPSQIAAGAFCLALKILDNGEWTPTLQHYLSYSEDSLLPVMQHLAKNVVMVNCGLTKHMTVKNKYAASKHAKISTLAQLNCTLVQNLSKAVTKA
B9: Puf60 (protein, UniProt Q3UEB3 1-564, looked up)
Poly(U)-binding-splicing …: MATATIALQVNGQQGGGSEPAAAAAAAAAAVVAAGDKWKPPQGTESIKMENGQSTGTKLGLPPLTPEQQEALQKAKKYAMEQSIKSVLVKQTIAHQQQQLTNLQMAAVTMGFGDPLSPLQSMAAQRQRALAIMCRVYVGSIYYELGEDTIRQAFAPFGPIKSIDMSWDSVTMKHKGFAFVEYEVPEAAQLALEQMNSVMLGGRNIKVGRPSNIGQAQPIIDQLAEEARAFNRIYVASVHQDLSDDDIKSVFEAFGKIKSCTLARDPTTGKHKGYGFIEYEKAQSSQDAVSSMNLFDLGGQYLRVGKAVTPPMPLLTPATPGGLPPAAAVAAAAATAKITAQEAVAGAAVLGTLATPGLVSPALTLAQPLGALPQAVMAAQAPGVITGVTPARPPIPVTIPSVGVVNPILASPPTLGLLEPKKEKEEEELFPESERPEMLSEQEHMSISGSSARHMVMQKLLRKQESTVMVLRNMVDPKDIDDDLEGEVTEECGKFGAVNRVIIYQEKQGEEEDAEIIVKIFVEFSMASETHKAIQALNGRWFGGRKVVAEVYDQERFDNSDLSA

Biological target: T1, nSR100 (Mus musculus, UniProt Q8BKA3)
T1 construct: host or cells: mouse N2A cells
T1 sequence (Q8BKA3 1-608): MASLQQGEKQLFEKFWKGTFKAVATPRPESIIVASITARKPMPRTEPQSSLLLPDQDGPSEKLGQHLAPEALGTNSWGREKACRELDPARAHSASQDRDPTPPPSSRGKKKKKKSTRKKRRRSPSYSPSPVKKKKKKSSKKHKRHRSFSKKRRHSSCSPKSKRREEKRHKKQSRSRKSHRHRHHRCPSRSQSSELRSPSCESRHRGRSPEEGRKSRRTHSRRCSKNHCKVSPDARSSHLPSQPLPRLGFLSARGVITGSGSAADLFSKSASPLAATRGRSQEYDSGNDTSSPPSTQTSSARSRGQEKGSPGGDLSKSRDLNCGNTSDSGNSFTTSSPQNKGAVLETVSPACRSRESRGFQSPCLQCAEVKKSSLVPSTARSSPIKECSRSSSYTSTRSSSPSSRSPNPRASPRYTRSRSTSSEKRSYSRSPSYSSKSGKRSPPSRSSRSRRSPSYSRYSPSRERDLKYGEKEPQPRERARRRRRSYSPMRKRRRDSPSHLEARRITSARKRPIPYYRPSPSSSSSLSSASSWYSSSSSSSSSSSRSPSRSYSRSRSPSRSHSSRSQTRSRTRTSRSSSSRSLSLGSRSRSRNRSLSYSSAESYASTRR
Experiment: AP-MS nSR100 interaction partners from mouse N2A cells (Table 5)
Format: binding
Conditions: for AvgP (average of the SAINT scores) / MaxP (maximal SAINT score): bait Srrm4; for FoldChange between the prey Avg spectra of the bait and control purifications: bait Srrm4, 0.1 added to prevent division by 0; for AvgSpec (average number of spectra per replicate): bait Srrm4, 2 replicates; for Spectra (number of spectra for the prey in the purification of the bait): AP-MS; for SpecSum: bait Srrm4, sum of spectra over 2 replicates

[1] = bait Srrm4, biological replicate 1 (first number of the cell)
[2] = bait Srrm4, biological replicate 2 (second number of the cell)

From the text: By applying affinity purification coupled to mass-spectrometry (AP-MS), several interaction nSR100 partner proteins were detected that provide insight into mechanisms of post-translational regulation of nSR100 levels.

AvgP (average of the SAINT scores)	MaxP (maximal SAINT score)	FoldChange between the prey Avg spectra of the bait and control purifications	AvgSpec (average number of spectra per replicate)	Spectra (number of spectra for the prey in the purification of the bait) [1]	Spectra (number of spectra for the prey in the purification of the bait) [2]	SpecSum	Molecule
1	1	60	6	6|6	6|6	12	B1
1	1	60	6	4	8	12	B2
1	1	4.6	23	22	24	46	B3
1	1	4.33	39	35	43	78	B4
1	1	180	18	15	21	36	B5
1	1	55	5.5	7	4	11	B6
1	1	4.95	49.5	44	55	99	B7
1	1	300	30	27	33	60	B8
1	1	5.07	73.5	55	92	147	B9
